Assay results published in US20090074790A1, “Methods for measuring transforming growth factor beta (TGF-beta) receptor signaling activity and uses thereof” (priority 2004, published 2009).

Molecular target: TGFβ type I receptor (TβR-I) on human cells (human) (UniProt P36897)
Experiment: cell-based or functional assay

Chain of TGFβ type I receptor (TβR-I) on human cells (human) (P36897 34-503): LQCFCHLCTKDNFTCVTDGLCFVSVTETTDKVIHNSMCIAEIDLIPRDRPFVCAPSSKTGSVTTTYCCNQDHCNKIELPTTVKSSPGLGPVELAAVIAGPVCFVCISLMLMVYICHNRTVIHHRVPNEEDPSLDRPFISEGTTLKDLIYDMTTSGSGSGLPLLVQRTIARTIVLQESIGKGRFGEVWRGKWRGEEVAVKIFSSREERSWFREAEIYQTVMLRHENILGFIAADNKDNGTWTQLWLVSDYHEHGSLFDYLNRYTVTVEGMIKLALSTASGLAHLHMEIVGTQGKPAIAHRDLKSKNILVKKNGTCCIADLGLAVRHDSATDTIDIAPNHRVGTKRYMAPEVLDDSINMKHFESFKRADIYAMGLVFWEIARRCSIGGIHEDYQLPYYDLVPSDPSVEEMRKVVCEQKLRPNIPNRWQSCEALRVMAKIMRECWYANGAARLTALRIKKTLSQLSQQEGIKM

- growth inhibition of human keratinocytes: 5 pM
Substance: TGFβ (exogenous, added to human keratinocyte cultures) (ligand)
